From US20210355205A1 (published 2021)
Residue numbers refer to the chain shown, from its start. Values belong to the binder of their own block, whether it stands above or below them.

How the values were obtained:
recombinant human IL-5 [1] = target: recombinant human IL-5 (human, UniProt P05113 20-134); test: Biacore, Ab on Protein A chip
recombinant human IL-5 [2] = target: recombinant human IL-5 (human, UniProt P05113 20-134); test: Biacore
Cynomolgus IL-5 = Cynomolgus IL-5 (cynomolgus monkey); test: cell-based or functional assay

proportional kd vs parent 3A5.040 (recombinant human IL-5 [1]): 1 ratio
B1: 3A5.211 (antibody, human IgG4 S228P, lambda, name in Kabat numbering, V domains shown)
VH: QVQLQESGPGLVKPSQTLSLTCTVSGGSISNGGYYWSWIRQHPGKGLEWIGYIYYSGSTYYNPSLKSRVTISVDTSKNQFSLKLSSVTAADTAVYYCASLGNWFDYWGQGTLVTVSS
VL: SYVLTQPPSVSVAPGQTARITCGGNNIGSKNVYWYQQKPGQAPVLVVHDDSDRPSGIPERFSGSNSGNTATLTISRVEVGDEADYSCQAWDSSSDHVVFGGGTKLTVLG

proportional kd vs parent 3A5.040 (recombinant human IL-5 [2]): 0.8
B2: 3A5.508 (antibody, human IgG4 S228P, lambda, name in Kabat numbering, V domains shown)
VH: B1 VH with G101A
VL: B1 VL with A89V

Mean (pM): mean IC50, TF-1.6G4 cell line proliferation assay (Cynomolgus IL-5): 43.8 pM
B3: 3A5.046 (antibody, human IgG4 S228P, lambda)
heavy: QVQLQESGPGLVKPSQTLSLTCTVSGGSISNGGYYWSWIRQHPGKGLEWIGYIYYSGSTYYNPSLKSRVTISVDTSKNQFSLKLSSVTAADTAVYYCASLGNWFDYWGQGTLVTVSSASTKGPSVFPLAPCSRSTSESTAALGCLVKDYFPEPVTVSWNSGALTSGVHTFPAVLQSSGLYSLSSVVTVPSSSLGTKTYTCNVDHKPSNTKVDKRVESKYGPPCPPCPAPEFLGGPSVFLFPPKPKDTLYITREPEVTCVVVDVSQEDPEVQFNWYVDGVEVHNAKTKPREEQFNSTYRVVSVLTVLHQDWLNGKEYKCKVSNKGLPSSIEKTISKAKGQPREPQVYTLPPSQEEMTKNQVSLTCLVKGFYPSDIAVEWESNGQPENNYKTTPPVLDSDGSFFLYSRLTVDKSRWQEGNVFSCSVMHEALHNHYTQKSLSLSLG
light: SYVLTQPPSVSVAPGQTARITCGGNNIGSKNVYWYQQKPGQAPVLVVHDDSDRPSGIPERFSGSNSGNTATLTISRVEVGDEADYSCQVWDSSSDHVVFGGGTKLTVLGQPKAAPSVTLFPPSSEELQANKATLVCLISDFYPGAVTVAWKADSSPVKAGVETTTPSKQSNNKYAASSYLSLTPEQWKSHRSYSCQVTHEGSTVEKTVAPTECS
